Experimental data from article PMC3397946, “Identification and Characterization of the Cognate Anti-Sigma Factor and Specific Promoter Elements of a T. tengcongensis ECF Sigma Factor”.

How the values were obtained:
Tt-RpoE1 [1] = target: T1, Tt-RpoE1 (Thermoanaerobacter tengcongensis MB4T, UniProt Q8RCT7 1-162); assay: EMSA; 5 uM protein; 50 mM Tris-HCl pH 8.0, 10 mM MgAc2, 30 mM NaCl, 1 mM DTT, 5% glycerol, 30 ug/ml BSA, 0.5 mM EDTA, 1 ug poly(dI-dC), 20 fmol probe in 20 ul, 25 C, 20 min; conditions: protein: recombinant; tags: His (pET28a); label: 5'-32P top strand; fork: top 3' overhang 10 nt
T1 sequence: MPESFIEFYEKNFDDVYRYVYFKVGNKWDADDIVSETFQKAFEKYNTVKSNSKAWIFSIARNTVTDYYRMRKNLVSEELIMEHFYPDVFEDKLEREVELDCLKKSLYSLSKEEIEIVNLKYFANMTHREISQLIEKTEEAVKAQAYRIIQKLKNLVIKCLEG

Tt-TolB-C = target: T2, Tt-TolB-C (Thermoanaerobacter tengcongensis MB4T, UniProt Q8RCT8 62-645); assay: EMSA; 5 uM, alone; 50 mM Tris-HCl pH 8.0, 10 mM MgAc2, 30 mM NaCl, 1 mM DTT, 5% glycerol, 30 ug/ml BSA, 0.5 mM EDTA, 1 ug poly(dI-dC), 20 fmol probe in 20 ul, 25 C, 20 min; conditions: protein: recombinant; tags: His (pET28a); label: 5'-32P top strand; fork: top 3' overhang 10 nt
T2 sequence: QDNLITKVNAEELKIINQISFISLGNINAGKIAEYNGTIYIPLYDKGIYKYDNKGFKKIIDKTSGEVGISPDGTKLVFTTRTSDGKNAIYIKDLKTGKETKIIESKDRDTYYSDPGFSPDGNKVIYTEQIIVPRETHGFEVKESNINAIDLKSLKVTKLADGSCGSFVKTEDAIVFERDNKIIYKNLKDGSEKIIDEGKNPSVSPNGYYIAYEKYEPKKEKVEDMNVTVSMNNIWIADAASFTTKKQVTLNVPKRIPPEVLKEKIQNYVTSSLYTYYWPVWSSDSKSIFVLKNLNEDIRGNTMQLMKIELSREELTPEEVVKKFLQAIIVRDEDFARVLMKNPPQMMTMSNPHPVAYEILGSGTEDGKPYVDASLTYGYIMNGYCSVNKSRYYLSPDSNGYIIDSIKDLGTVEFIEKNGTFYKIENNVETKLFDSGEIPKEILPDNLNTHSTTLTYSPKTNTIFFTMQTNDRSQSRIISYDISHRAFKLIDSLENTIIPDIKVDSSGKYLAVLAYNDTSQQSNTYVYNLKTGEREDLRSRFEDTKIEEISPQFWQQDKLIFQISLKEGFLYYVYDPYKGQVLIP

Tt-TolB = target: T3, Tt-TolB (Thermoanaerobacter tengcongensis MB4T, UniProt Q8RCT8 1-645); assay: as above; conditions: protein: recombinant; tags: His (pET28a); label: 5'-32P top strand; fork: top 3' overhang 10 nt
T3 sequence: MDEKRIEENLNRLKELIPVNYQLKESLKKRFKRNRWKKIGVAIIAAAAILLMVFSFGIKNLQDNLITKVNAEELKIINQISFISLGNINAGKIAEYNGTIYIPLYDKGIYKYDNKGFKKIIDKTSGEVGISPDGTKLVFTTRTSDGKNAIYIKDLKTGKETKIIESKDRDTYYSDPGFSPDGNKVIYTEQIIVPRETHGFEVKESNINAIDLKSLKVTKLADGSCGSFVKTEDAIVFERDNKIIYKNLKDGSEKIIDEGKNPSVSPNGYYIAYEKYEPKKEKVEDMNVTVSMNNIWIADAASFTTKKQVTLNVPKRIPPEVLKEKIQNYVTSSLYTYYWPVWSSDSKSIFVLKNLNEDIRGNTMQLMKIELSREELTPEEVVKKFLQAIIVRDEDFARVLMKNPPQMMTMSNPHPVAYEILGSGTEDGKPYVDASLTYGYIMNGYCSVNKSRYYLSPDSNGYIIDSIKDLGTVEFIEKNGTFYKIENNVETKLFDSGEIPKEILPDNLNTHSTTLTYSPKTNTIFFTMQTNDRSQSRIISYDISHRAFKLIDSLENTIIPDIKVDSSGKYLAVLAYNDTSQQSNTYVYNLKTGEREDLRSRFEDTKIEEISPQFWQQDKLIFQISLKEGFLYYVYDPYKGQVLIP

Tt-RpoE1;Tt-TolB = target: T4, Tt-RpoE1;Tt-TolB (Thermoanaerobacter tengcongensis …, UniProt Q8RCT7;Q8RCT8 1-162;1-645, |); assay: EMSA; 5 uM each; supershifted complex; 50 mM Tris-HCl pH 8.0, 10 mM MgAc2, 30 mM NaCl, 1 mM DTT, 5% glycerol, 30 ug/ml BSA, 0.5 mM EDTA, 1 ug poly(dI-dC), 20 fmol probe in 20 ul, 25 C, 20 min; conditions: protein: recombinant;recombinant; tags: His (pET28a);His (pET28a); label: 5'-32P top strand; fork: top 3' overhang 10 nt
T4 sequence 1: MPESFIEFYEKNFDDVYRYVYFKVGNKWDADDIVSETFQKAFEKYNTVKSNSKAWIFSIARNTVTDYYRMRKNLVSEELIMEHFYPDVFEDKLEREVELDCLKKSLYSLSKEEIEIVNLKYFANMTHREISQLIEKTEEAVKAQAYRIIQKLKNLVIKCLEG
T4 sequence 2: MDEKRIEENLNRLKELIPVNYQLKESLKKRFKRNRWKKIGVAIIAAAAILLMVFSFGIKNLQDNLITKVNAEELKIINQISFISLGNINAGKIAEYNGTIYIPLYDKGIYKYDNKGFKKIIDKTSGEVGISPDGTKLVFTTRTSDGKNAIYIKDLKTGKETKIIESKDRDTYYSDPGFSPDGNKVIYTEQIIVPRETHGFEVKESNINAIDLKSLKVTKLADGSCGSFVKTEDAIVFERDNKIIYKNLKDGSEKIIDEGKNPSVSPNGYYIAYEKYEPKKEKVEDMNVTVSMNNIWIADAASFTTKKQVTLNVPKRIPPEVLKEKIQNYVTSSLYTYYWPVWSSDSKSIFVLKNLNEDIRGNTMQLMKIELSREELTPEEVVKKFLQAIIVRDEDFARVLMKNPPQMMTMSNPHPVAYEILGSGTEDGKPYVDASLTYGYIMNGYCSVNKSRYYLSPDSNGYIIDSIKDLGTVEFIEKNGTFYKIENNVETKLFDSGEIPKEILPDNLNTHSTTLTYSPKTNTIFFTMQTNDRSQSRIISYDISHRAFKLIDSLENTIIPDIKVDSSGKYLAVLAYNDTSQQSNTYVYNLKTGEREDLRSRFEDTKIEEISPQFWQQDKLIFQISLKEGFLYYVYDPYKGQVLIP

Tt-RpoE1 [2] = target: T1, Tt-RpoE1; assay: EMSA; 5 uM protein; strongest; 50 mM Tris-HCl pH 8.0, 10 mM MgAc2, 30 mM NaCl, 1 mM DTT, 5% glycerol, 30 ug/ml BSA, 0.5 mM EDTA, 1 ug poly(dI-dC), 20 fmol probe in 20 ul, 25 C, 20 min; conditions: protein: recombinant; tags: His (pET28a); label: 5'-32P top strand; fork: top 3' overhang 12 nt
Tt-RpoE1 [3] = target: T1, Tt-RpoE1; assay: EMSA; 5 uM protein; abolished; 50 mM Tris-HCl pH 8.0, 10 mM MgAc2, 30 mM NaCl, 1 mM DTT, 5% glycerol, 30 ug/ml BSA, 0.5 mM EDTA, 1 ug poly(dI-dC), 20 fmol probe in 20 ul, 25 C, 20 min; conditions: protein: recombinant; tags: His (pET28a); label: 5'-32P top strand; fork: top 3' overhang 10 nt
Tt-RpoE1 [4] = target: T1, Tt-RpoE1; assay: EMSA; 5 uM protein; little effect; 50 mM Tris-HCl pH 8.0, 10 mM MgAc2, 30 mM NaCl, 1 mM DTT, 5% glycerol, 30 ug/ml BSA, 0.5 mM EDTA, 1 ug poly(dI-dC), 20 fmol probe in 20 ul, 25 C, 20 min; conditions: protein: recombinant, tags: His (pET28a), label: 5'-32P top strand

B1: T+1/B-10 (dsDNA)
DNA 1: GGTATTGTTACCTTTTGTGTAGATTTTCGTCTATAAAGGTG
DNA 2: GACGAAAATCTACACAAAAGGTAACAATACC
Q: Does B1 bind (Tt-RpoE1 [1])?
A: binds

Q: Does B1 bind (Tt-TolB-C)?
A: no binding

Q: Does B1 bind (Tt-TolB)?
A: no binding

Q: Does B1 bind (Tt-RpoE1;Tt-TolB)?
A: binds

B2: T+1/B-12 (dsDNA)
DNA 1: GGTATTGTTACCTTTTGTGTAGATTTTCGTCTATAAAGGTG
DNA 2: CGAAAATCTACACAAAAGGTAACAATACC
Q: Does B2 bind (Tt-RpoE1 [2])?
A: binds

B3: D-5-6c (-30C to T) (dsDNA)
DNA 1: TGTTATCTTTTGTGTAGATTTTCGTCTATAAAGGTG
DNA 2: GACGAAAATCTACACAAAAGATAACA
Q: Does B3 bind (Tt-RpoE1 [3])?
A: no binding

B4: D-5-b6a/-12 (-8A to G) (dsDNA)
DNA 1: TGTTACCTTTTGTGTAGATTTTCGTCTGTAAAGGTG
DNA 2: CGAAAATCTACACAAAAGGTAACA
Q: Does B4 bind (Tt-RpoE1 [4]; fork: top 3' overhang 12 nt)?
A: binds

B5: D-5/-10 (dsDNA)
DNA 1: TGTTACCTTTTGTGTAGATTTTCGTCTATAAAGGTG
DNA 2: GACGAAAATCTACACAAAAGGTAACA
Q: Does B5 bind (Tt-RpoE1 [1])?
A: binds

B6: D-5-7c (-29C to T) (dsDNA)
DNA 1: TGTTACTTTTTGTGTAGATTTTCGTCTATAAAGGTG
DNA 2: GACGAAAATCTACACAAAAAGTAACA
Q: Does B6 bind (Tt-RpoE1 [4]; fork: top 3' overhang 10 nt)?
A: binds

B7: D-5-b7t/-12 (-7T to G) (dsDNA)
DNA 1: TGTTACCTTTTGTGTAGATTTTCGTCTAGAAAGGTG
DNA 2: CGAAAATCTACACAAAAGGTAACA
Q: Does B7 bind (Tt-RpoE1 [4]; fork: top 3' overhang 12 nt)?
A: binds
